We go through three molecules from patent US6916624 (Genentech, dated 2005).

Usually EC50 stands for the concentration needed to bring the measured effect to its halfway point. Read a low EC50 as an effect from little substance.

The target of assay [1] is ErbB2 on human breast cancer cells (MDA-MB-175, SK-BR-3) (human) (UniProt P04626). As to the kind of experiment: cell-based or functional assay.
Assay [2] deals with ErbB receptor(s) on MCF7 cells. In words: cell-based or functional assay.
The target of assay [3] is ErbB receptor(s) on MCF7 cells. In words: cell-based or functional assay. This is another data set of the same source.
In assay [4] the target is T1, ErbB3-immunoadhesin (ErbB3-IgG fusion, L636 ErbB3-(TR)-DKTH224 VH) (human, UniProt P21860 20-643; P01857 104-330 = IgG part).
T1 construct: extracellular domain;domain: hinge domain of the immunoglobulin onward; Made in HEK-293 cells, purified on Protein A; also called ErbB3 immunoadhesins
T1 sequence (P21860 other isoform, or with tags, fused parts or gaps limits assumed): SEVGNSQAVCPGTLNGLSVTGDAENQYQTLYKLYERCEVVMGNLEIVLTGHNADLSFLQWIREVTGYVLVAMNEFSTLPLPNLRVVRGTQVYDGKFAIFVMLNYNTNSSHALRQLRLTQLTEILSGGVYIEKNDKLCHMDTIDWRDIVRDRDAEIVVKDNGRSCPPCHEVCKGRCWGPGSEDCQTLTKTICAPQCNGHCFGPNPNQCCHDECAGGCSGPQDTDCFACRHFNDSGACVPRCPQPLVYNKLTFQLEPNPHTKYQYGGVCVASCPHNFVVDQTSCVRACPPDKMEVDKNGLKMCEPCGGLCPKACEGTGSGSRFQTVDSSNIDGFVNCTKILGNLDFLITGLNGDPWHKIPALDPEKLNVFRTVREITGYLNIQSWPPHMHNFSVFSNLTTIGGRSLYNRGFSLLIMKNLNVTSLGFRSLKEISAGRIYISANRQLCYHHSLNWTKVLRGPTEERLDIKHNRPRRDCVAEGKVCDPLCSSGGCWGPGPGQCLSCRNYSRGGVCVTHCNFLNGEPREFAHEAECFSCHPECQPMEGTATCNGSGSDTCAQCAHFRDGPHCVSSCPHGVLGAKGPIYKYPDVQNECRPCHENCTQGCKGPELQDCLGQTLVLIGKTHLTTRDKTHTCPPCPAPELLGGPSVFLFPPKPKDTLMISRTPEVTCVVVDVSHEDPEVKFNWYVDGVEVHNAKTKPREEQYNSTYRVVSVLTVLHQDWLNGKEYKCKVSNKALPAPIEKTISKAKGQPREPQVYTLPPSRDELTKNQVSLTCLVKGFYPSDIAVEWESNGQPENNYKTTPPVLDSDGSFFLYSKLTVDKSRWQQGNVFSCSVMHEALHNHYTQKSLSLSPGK
In words: competitive displacement of ^125I-HRGβ1(177-244) (0.23 nM) from ErbB3-IgG captured on goat-anti-human antibody coated wells. As for the experimental part: (§1) ¹²⁵I-HRG Binding Assay. Binding assays were performed in Nunc breakapart strip wells. Plates were coated at 4° C. overnight with 100 μl of 5 μg/ml goat-anti-human antibody (Boehringer Mannheim) in 50 mM carbonate buffer (pH 9.6). Plates were rinsed twice with wash buffer (PBS/0.05% Tween-20™) and blocked with 100 μl 1% BSA/PBS for 30 min. Buffer was removed and each well was incubated with 15 ng IgG fusion protein in 1% BSA/PBS under vigorous shaking for 1.5 hours. Plates were rinsed three times with wash buffer and competitive binding was carried out by adding various amounts of γ-HRG and ¹²⁵I-HRGβ1 under vigorous shaking. After incubation for 1.5–2 hours, wells were rinsed three times with wash buffer, drained and individual wells were counted using a 100 Series Iso Data γ-counter.
(§2) Bio/Technology 11:187–193 (1993)). Under those conditions trxγ-HRG accumulated in inclusion bodies from which the recombinant protein was isolated. Following purification, the protein was sulfitolyzed and then refolded by the addition of cysteine. The interaction of γ-HRG with the heregulin receptors ErbB3 and ErbB4 was examined. […] Cells were treated with various amounts of γ-HRG and tyrosine kinase activity was determined using immunoblotting with anti-phosphotyrosine antibody.

The target in assay [5] is T2, ErbB4-immunoadhesin (ErbB4-IgG fusion, G640 ErbB4-(TR)-DKTH224 VH) (human, UniProt Q15303 26-651; P01857 104-330 = IgG part).
T2 construct: extracellular domain;domain: hinge domain of the immunoglobulin onward; also called H4-IgG; ErbB4 immunoadhesins
T2 sequence (Q15303 other isoform, or with tags, fused parts or gaps limits assumed): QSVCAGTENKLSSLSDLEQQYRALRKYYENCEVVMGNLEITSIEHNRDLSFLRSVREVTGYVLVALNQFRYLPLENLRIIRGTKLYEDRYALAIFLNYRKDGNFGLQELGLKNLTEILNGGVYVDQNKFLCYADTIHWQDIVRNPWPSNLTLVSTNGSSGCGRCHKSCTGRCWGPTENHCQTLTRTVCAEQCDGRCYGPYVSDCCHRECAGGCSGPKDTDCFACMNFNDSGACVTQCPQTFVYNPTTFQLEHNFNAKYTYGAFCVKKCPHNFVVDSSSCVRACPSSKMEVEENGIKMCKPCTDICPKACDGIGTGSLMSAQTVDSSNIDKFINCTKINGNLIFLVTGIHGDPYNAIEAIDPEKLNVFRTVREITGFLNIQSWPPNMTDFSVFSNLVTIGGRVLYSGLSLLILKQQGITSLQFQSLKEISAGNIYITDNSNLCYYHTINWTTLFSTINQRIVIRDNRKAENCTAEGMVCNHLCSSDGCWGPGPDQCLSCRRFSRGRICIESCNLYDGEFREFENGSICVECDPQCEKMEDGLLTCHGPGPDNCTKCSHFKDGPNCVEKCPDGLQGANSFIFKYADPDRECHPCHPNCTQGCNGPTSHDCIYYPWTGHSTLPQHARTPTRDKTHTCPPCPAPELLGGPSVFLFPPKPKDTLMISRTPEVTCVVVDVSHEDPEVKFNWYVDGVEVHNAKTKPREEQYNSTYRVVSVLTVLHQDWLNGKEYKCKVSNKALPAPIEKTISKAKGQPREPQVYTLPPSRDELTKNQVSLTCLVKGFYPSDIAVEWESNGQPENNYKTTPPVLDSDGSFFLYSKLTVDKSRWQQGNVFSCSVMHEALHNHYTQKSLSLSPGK
In words: competitive displacement of ^125I-HRGβ1(177-244) (0.23 nM) from ErbB4-IgG captured on goat-anti-human antibody coated wells. The method, then: as §1, §2

Like-named read-outs stand apart in the source and are kept apart here.

anti-ErbB2 monoclonal antibody 4D5: in assay [1], the growth inhibition of SK-BR-3 cells (crystal violet staining) was 66%.
As for “EGF-like domain of HRGβ1(177-244), expressed in E. coli (from UniProt Q02297 177-244) (ligand)”, in assay [2], the EC50 of tyrosine phosphorylation in MCF7 cells was found to be 0.06 nM.

B1: trxγ-HRG (amino acids 455-768), N-terminal truncated γ-HRG thioredoxin fusion protein (ligand)
chain: QVFIDHPVHLKFNVSLGKAALVGIYGRKGLPPSHTQFDFVELLDGRRLLTQEARSLEGTPRQSRGTVPPSSHETGFIQYLDSGIWHLAFYNDGKESEVVSFLTTAIALPPRLKEMKSQESAAGSKLVLRCETSSEYSSLRFKWFKNGNELNRKNKPQNIKIQKKPGKSELRINKASLADSGEYMCKVISKLGNDSASANITIVESNEIITGMPASTEGAYVSSESPIRISVSTEGANTSSSTSTSTTGTSHLVKCAEKEKTFCVNGGECFMVKDLSNPSRYLCKCPNEFTGDRCQNYVMASFYSTSTPFLSLPE
notes: The results text calls it simply γ-HRG; also called recombinant γ-HRG; bacterial expressed truncated γ-HRG; not shown: N-terminal thioredoxin encoded by the pET-32a TRX fusion vector (Novagen); vector-encoded residues of pET32a between thioredoxin and the BamHI insertion site are not described
B1 gave an EC50 of tyrosine phosphorylation in MCF7 cells in assay [3] of 0.06 nM. Also, the EC50 was determined as 19 nM in assay [4] and 13.3 nM in assay [5].
